Assay results taken from the supplement of paper PMC9112550, “Optimization of the antimicrobial peptide Bac7 by deep mutational scanning” (BMC Biology, 2022).

Tested on: Escherichia coli TOP10
Assay: shrunken log2 fold change of peptide-encoding DNA abundance (4.5 h post-induction vs induction); higher = less antimicrobial activity (less host growth inhibition)
Settings: time post-induction: 4.5 h; library: site-saturation at positions 5, 18, 19, 20
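Also: peptides expressed intracellularly from a pBAD plasmid library in pooled LB shake-flask culture, induced with 0.3% L-arabinose, DNA abundance read by NGS, three biological replicates, DESeq2 with apeglm shrinkage.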

Sequence	shrunken log2 fold change
RRIRERPPRLPRPRPRPPVQPRP	-0.122
RRIRERPPRLPRPRPRPPWHPRP	-0.0644
RRIRERPPRLPRPRPRPPWRPRP	0.424
RRIRERPPRLPRPRPRPPWYPRP	-0.227
RRIRERPPRLPRPRPRPQAQPRP	-0.0773
RRIRERPPRLPRPRPRPQASPRP	-0.328
RRIRERPPRLPRPRPRPQATPRP	-0.0202
RRIRERPPRLPRPRPRPQCCPRP	-0.106
RRIRERPPRLPRPRPRPQCFPRP	-0.702
RRIRERPPRLPRPRPRPQFAPRP	-0.148
RRIRERPPRLPRPRPRPQFYPRP	-0.452
RRIRERPPRLPRPRPRPQHSPRP	-0.597
RRIRERPPRLPRPRPRPQKGPRP	-0.213
RRIRERPPRLPRPRPRPQKKPRP	0.0196
RRIRERPPRLPRPRPRPQLVPRP	0.0441
RRIRERPPRLPRPRPRPQMGPRP	-0.115
RRIRERPPRLPRPRPRPQMYPRP	-0.337
RRIRERPPRLPRPRPRPQNPPRP	-0.213
RRIRERPPRLPRPRPRPQPGPRP	0.0699
RRIRERPPRLPRPRPRPQQAPRP	0.01
RRIRERPPRLPRPRPRPQSIPRP	-2.26
RRIRERPPRLPRPRPRPQSLPRP	-0.0684
RRIRERPPRLPRPRPRPQTNPRP	-0.554
RRIRERPPRLPRPRPRPQVCPRP	-0.245
RRIRERPPRLPRPRPRPQVHPRP	-0.445

Sequence	shrunken log2 fold change
RRIRERPPRLPRPRPRPQWQPRP	-0.109
RRIRERPPRLPRPRPRPQYDPRP	-0.418
RRIRERPPRLPRPRPRPQYHPRP	-0.172
RRIRERPPRLPRPRPRPQYRPRP	-0.612
RRIRERPPRLPRPRPRPRCDPRP	-0.044
RRIRERPPRLPRPRPRPRDHPRP	0.162
RRIRERPPRLPRPRPRPRDWPRP	0.311
RRIRERPPRLPRPRPRPREMPRP	0.203
RRIRERPPRLPRPRPRPRGHPRP	0.0666
RRIRERPPRLPRPRPRPRGKPRP	0.0142
RRIRERPPRLPRPRPRPRGQPRP	0.837
RRIRERPPRLPRPRPRPRHCPRP	-0.133
RRIRERPPRLPRPRPRPRHWPRP	0.0819
RRIRERPPRLPRPRPRPRITPRP	-0.578
RRIRERPPRLPRPRPRPRKFPRP	0.173
RRIRERPPRLPRPRPRPRKMPRP	-0.0569
RRIRERPPRLPRPRPRPRKNPRP	-0.0182
RRIRERPPRLPRPRPRPRKPPRP	-0.13
RRIRERPPRLPRPRPRPRLDPRP	0.0479
RRIRERPPRLPRPRPRPRLGPRP	0.157
RRIRERPPRLPRPRPRPRLKPRP	-0.0205
RRIRERPPRLPRPRPRPRLLPRP	-0.335
RRIRERPPRLPRPRPRPRNCPRP	-0.102
RRIRERPPRLPRPRPRPRPLPRP	0.176
RRIRERPPRLPRPRPRPRQDPRP	-0.0529

Sequence	shrunken log2 fold change
RRIRERPPRLPRPRPRPRRDPRP	0.0233
RRIRERPPRLPRPRPRPRRIPRP	-0.00822
RRIRERPPRLPRPRPRPRTEPRP	-0.0166
RRIRERPPRLPRPRPRPSCSPRP	-0.412
RRIRERPPRLPRPRPRPSCWPRP	0.101
RRIRERPPRLPRPRPRPSDFPRP	-0.149
RRIRERPPRLPRPRPRPSEYPRP	-0.27
RRIRERPPRLPRPRPRPSFKPRP	-0.401
RRIRERPPRLPRPRPRPSGMPRP	-0.46
RRIRERPPRLPRPRPRPSGTPRP	-0.117
RRIRERPPRLPRPRPRPSGYPRP	-0.0887
RRIRERPPRLPRPRPRPSICPRP	-0.151
RRIRERPPRLPRPRPRPSINPRP	-0.798
RRIRERPPRLPRPRPRPSLCPRP	-0.0545
RRIRERPPRLPRPRPRPSLGPRP	-0.143
RRIRERPPRLPRPRPRPSLSPRP	-0.573
RRIRERPPRLPRPRPRPSNEPRP	-0.17
RRIRERPPRLPRPRPRPSNHPRP	-0.91
RRIRERPPRLPRPRPRPSPIPRP	-0.122
RRIRERPPRLPRPRPRPSQRPRP	-0.0321
RRIRERPPRLPRPRPRPSRAPRP	0.12
RRIRERPPRLPRPRPRPSRQPRP	-0.214
RRIRERPPRLPRPRPRPSTFPRP	2.07
RRIRERPPRLPRPRPRPSTHPRP	-0.663
RRIRERPPRLPRPRPRPSTKPRP	-0.232

Sequence	shrunken log2 fold change
RRIRERPPRLPRPRPRPSVAPRP	0.132
RRIRERPPRLPRPRPRPSVDPRP	-0.318
RRIRERPPRLPRPRPRPSVFPRP	-0.0831
RRIRERPPRLPRPRPRPSWTPRP	-0.833
RRIRERPPRLPRPRPRPSYDPRP	-0.301
RRIRERPPRLPRPRPRPSYEPRP	-0.499
RRIRERPPRLPRPRPRPTCDPRP	0.158
RRIRERPPRLPRPRPRPTDFPRP	-0.13
RRIRERPPRLPRPRPRPTDLPRP	0.15
RRIRERPPRLPRPRPRPTEDPRP	-0.317
RRIRERPPRLPRPRPRPTGAPRP	0.316
RRIRERPPRLPRPRPRPTGTPRP	-0.0482
RRIRERPPRLPRPRPRPTIIPRP	-0.664
RRIRERPPRLPRPRPRPTIWPRP	-0.222
RRIRERPPRLPRPRPRPTLDPRP	0.149
RRIRERPPRLPRPRPRPTLFPRP	0.0897
RRIRERPPRLPRPRPRPTLHPRP	-0.0201
RRIRERPPRLPRPRPRPTLSPRP	0.0115
RRIRERPPRLPRPRPRPTLTPRP	-0.0194
RRIRERPPRLPRPRPRPTMRPRP	0.732
RRIRERPPRLPRPRPRPTMWPRP	-0.421
RRIRERPPRLPRPRPRPTNAPRP	-0.0659
RRIRERPPRLPRPRPRPTPEPRP	0.122
RRIRERPPRLPRPRPRPTPNPRP	0.0742
RRIRERPPRLPRPRPRPTPWPRP	0.108

Sequence	shrunken log2 fold change
RRIRERPPRLPRPRPRPTQKPRP	0.337
RRIRERPPRLPRPRPRPTQRPRP	0.0475
RRIRERPPRLPRPRPRPTSHPRP	-0.239
RRIRERPPRLPRPRPRPTSTPRP	-0.319
RRIRERPPRLPRPRPRPTTRPRP	0.0679
RRIRERPPRLPRPRPRPTTWPRP	0.0447
RRIRERPPRLPRPRPRPTTYPRP	-0.8
RRIRERPPRLPRPRPRPTVGPRP	-0.116
RRIRERPPRLPRPRPRPTVLPRP	-0.0263
RRIRERPPRLPRPRPRPTVSPRP	-0.137
RRIRERPPRLPRPRPRPTWKPRP	-0.012
RRIRERPPRLPRPRPRPTWNPRP	-0.167
RRIRERPPRLPRPRPRPTYCPRP	0.0353
RRIRERPPRLPRPRPRPVAAPRP	0.247
RRIRERPPRLPRPRPRPVACPRP	-0.0696
RRIRERPPRLPRPRPRPVADPRP	-0.0439
RRIRERPPRLPRPRPRPVCIPRP	-0.541
RRIRERPPRLPRPRPRPVDDPRP	0.133
RRIRERPPRLPRPRPRPVEAPRP	0.21
RRIRERPPRLPRPRPRPVFKPRP	-0.228
RRIRERPPRLPRPRPRPVFSPRP	-0.191
RRIRERPPRLPRPRPRPVFTPRP	-0.541
RRIRERPPRLPRPRPRPVHEPRP	-0.00127
RRIRERPPRLPRPRPRPVHPPRP	-0.00739
RRIRERPPRLPRPRPRPVMFPRP	0.934

Sequence	shrunken log2 fold change
RRIRERPPRLPRPRPRPVNCPRP	-0.315
RRIRERPPRLPRPRPRPVNEPRP	-0.224
RRIRERPPRLPRPRPRPVNKPRP	-0.31
RRIRERPPRLPRPRPRPVNQPRP	-0.123
RRIRERPPRLPRPRPRPVPTPRP	0.116
RRIRERPPRLPRPRPRPVQCPRP	0.00166
RRIRERPPRLPRPRPRPVQNPRP	-0.0413
RRIRERPPRLPRPRPRPVTRPRP	-0.0559
RRIRERPPRLPRPRPRPVTWPRP	-0.165
RRIRERPPRLPRPRPRPVVQPRP	-0.104
RRIRERPPRLPRPRPRPVYMPRP	-0.481
RRIRERPPRLPRPRPRPWAMPRP	-0.129
RRIRERPPRLPRPRPRPWASPRP	-0.00133
RRIRERPPRLPRPRPRPWDDPRP	-0.0464
RRIRERPPRLPRPRPRPWDKPRP	-0.00884
RRIRERPPRLPRPRPRPWFVPRP	-0.463
RRIRERPPRLPRPRPRPWGDPRP	0.108
RRIRERPPRLPRPRPRPWHWPRP	-0.0299
RRIRERPPRLPRPRPRPWIEPRP	-0.206
RRIRERPPRLPRPRPRPWMIPRP	-0.616
RRIRERPPRLPRPRPRPWMMPRP	-0.139
RRIRERPPRLPRPRPRPWNEPRP	-0.351
RRIRERPPRLPRPRPRPWPCPRP	0.151
RRIRERPPRLPRPRPRPWPKPRP	-0.102
RRIRERPPRLPRPRPRPWPTPRP	0.549
